Experimental data published in US20250277048A1 (Regeneron, published 2025).

T1: monkey CD40 extracellular domain expressed with a C-terminal myc-myc-hexahistidine tag (monkey)
T1 construct: also called mfCD40-MMH; REGN3097
T1 chain: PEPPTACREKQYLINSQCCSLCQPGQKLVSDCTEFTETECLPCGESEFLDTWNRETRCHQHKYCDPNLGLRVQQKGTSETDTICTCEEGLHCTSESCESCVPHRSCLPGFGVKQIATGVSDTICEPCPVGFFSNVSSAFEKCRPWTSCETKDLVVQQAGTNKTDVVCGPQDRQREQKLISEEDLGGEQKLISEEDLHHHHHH

B1: 21519P2 (antibody, human IgG4 S228P, kappa, V domains shown)
VH: QLQLQESGPGLVRPSETLSLTCSVSGASMNTNNYYWGWIRQPPGKGLEWIGSGYYNGNTYYNPSLKSRVTISVDTSKNQFSLKLNSVTAADTAVYYCARQTPPRIIGSPNIWGQGTMVTVSS
VL: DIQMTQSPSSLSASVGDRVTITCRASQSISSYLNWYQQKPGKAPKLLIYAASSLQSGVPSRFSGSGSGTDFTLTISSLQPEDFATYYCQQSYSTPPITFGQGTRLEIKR
notes: parental bivalent anti-CD40 mAb; common light chain; also called H4sH21519P2
B2: 21520P2 (antibody, human IgG4 S228P, kappa, V domains shown)
VH: EVQLVESGGGLVQPGGSLRLSCAASGFTFGSYGMAWVRQAPGKGLEWVSAISGSGDYTNYADSVKRRFTISRDNSKNTLYLQMSSLRAEDTAVYYCAKEKTGTTGYLYSGMDVWGQGTTVTVSS
VL: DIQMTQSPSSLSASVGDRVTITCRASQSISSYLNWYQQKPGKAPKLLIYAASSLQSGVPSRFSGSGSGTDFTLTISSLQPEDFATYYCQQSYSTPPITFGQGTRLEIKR
notes: parental bivalent anti-CD40 mAb; common light chain; also called H4sH21520P2
B3: REGN16431 (bispecific antibody, human IgG4 S228P, kappa)
heavy 1: QLQLQESGPGLVRPSETLSLTCSVSGASMNTNNYYWGWIRQPPGKGLEWIGSGYYNGNTYYNPSLKSRVTISVDTSKNQFSLKLNSVTAADTAVYYCARQTPPRIIGSPNIWGQGTMVTVSSASTKGPSVFPLAPCSRSTSESTAALGCLVKDYFPEPVTVSWNSGALTSGVHTFPAVLQSSGLYSLSSVVTVPSSSLGTKTYTCNVDHKPSNTKVDKRVESKYGPPCPPCPAPPVAGPSVFLFPPKPKDTLMISRTPEVTCVVVDVSQEDPEVQFNWYVDGVEVHNAKTKPREEQFNSTYRVVSVLTVLHQDWLNGKEYKCKVSNKGLPSSIEKTISKAKGQPREPQVYTLPPSQEEMTKNQVSLTCLVKGFYPSDIAVEWESNGQPENNYKTTPPVLDSDGSFFLYSRLTVDKSRWQEGNVFSCSVMHEALHNHYTQKSLSLSLGK
heavy 2: EVQLVESGGGLVQPGGSLRLSCAASGFTFGSYGMAWVRQAPGKGLEWVSAISGSGDYTNYADSVKRRFTISRDNSKNTLYLQMSSLRAEDTAVYYCAKEKTGTTGYLYSGMDVWGQGTTVTVSSASTKGPSVFPLAPCSRSTSESTAALGCLVKDYFPEPVTVSWNSGALTSGVHTFPAVLQSSGLYSLSSVVTVPSSSLGTKTYTCNVDHKPSNTKVDKRVESKYGPPCPPCPAPPVAGPSVFLFPPKPKDTLMISRTPEVTCVVVDVSQEDPEVQFNWYVDGVEVHNAKTKPREEQFNSTYRVVSVLTVLHQDWLNGKEYKCKVSNKGLPSSIEKTISKAKGQPREPQVYTLPPSQEEMTKNQVSLTCLVKGFYPSDIAVEWESNGQPENNYKTTPPVLDSDGSFFLYSRLTVDKSRWQEGNVFSCSVMHEALHNRFTQKSLSLSPGK
light: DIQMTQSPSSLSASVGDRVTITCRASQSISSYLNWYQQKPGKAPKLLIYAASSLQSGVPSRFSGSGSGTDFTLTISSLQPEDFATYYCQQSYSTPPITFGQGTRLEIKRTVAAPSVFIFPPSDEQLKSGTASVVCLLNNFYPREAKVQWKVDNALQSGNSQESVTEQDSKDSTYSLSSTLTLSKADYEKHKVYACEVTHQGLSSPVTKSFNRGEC
notes: D1 arm from 21519P2, D2 arm from 21520P2, common light chain; also called CD40xCD40 (21519 x 21520)
B4: REGN16432 (bispecific antibody, human IgG4 S228P, kappa)
heavy 1: EVQLVESGGGLVQPGGSLRLSCAASGFTFSSYAMNWVRQAPGKGLEWVSIISGTIGKTYYADSVKGRFTISRDNSKNTLYLQMNSLRGEDTAVYYCAKDTERDITGSPFDYWGQGTLVTVSSASTKGPSVFPLAPCSRSTSESTAALGCLVKDYFPEPVTVSWNSGALTSGVHTFPAVLQSSGLYSLSSVVTVPSSSLGTKTYTCNVDHKPSNTKVDKRVESKYGPPCPPCPAPPVAGPSVFLFPPKPKDTLMISRTPEVTCVVVDVSQEDPEVQFNWYVDGVEVHNAKTKPREEQFNSTYRVVSVLTVLHQDWLNGKEYKCKVSNKGLPSSIEKTISKAKGQPREPQVYTLPPSQEEMTKNQVSLTCLVKGFYPSDIAVEWESNGQPENNYKTTPPVLDSDGSFFLYSRLTVDKSRWQEGNVFSCSVMHEALHNHYTQKSLSLSLGK
heavy 2: B3 heavy 2
light: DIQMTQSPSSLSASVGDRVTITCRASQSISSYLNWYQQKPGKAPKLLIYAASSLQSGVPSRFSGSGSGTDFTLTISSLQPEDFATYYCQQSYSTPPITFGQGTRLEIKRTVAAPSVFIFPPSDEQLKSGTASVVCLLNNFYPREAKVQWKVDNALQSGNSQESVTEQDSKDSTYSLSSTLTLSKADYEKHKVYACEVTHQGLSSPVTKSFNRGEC
notes: D1 arm from 30027P2, D2 arm from 21520P2, common light chain; also called CD40xCD40 (30027 x 21520)
B5: 30027P2 (antibody, human IgG4 S228P, kappa, V domains shown)
VH: EVQLVESGGGLVQPGGSLRLSCAASGFTFSSYAMNWVRQAPGKGLEWVSIISGTIGKTYYADSVKGRFTISRDNSKNTLYLQMNSLRGEDTAVYYCAKDTERDITGSPFDYWGQGTLVTVSS
VL: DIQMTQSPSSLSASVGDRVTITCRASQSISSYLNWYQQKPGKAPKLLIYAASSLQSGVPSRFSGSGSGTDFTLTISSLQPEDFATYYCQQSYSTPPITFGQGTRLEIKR
notes: parental bivalent anti-CD40 mAb; common light chain; also called H4sH30027P2

Target: T2, human CD40 extracellular domain expressed with a C-terminal myc-myc-hexahistidine tag (human)
T2 construct: also called hCD40-MMH; hCD40-mmH
Assay: ELISA blocking of 40 nM hCD40-mmH binding to 9His-hCD40L
Source text: An ELISA-based blocking assay was developed to determine the ability of C40×CD40 bispecific antibodies to block the binding of the hCD40 monomer to plate-coated hCD40L. The recombinant human CD40-mmH protein (hCD40-MMH; REGN3094; SEQ ID NO: 53) used in the experiments comprises a portion of the human CD40 extracellular domain (amino acids P20-R193) fused to 2×Myc peptide and 6×histadine (SEQ ID NO: 1110) at the C-terminus of human CD40, and the human CD40L (accession #NM_000074.2) with amino acids E108-L261 of the extracellular domain with 9×His-2×(SGGG)-IGER at the N-terminus (9His-hCD40L) was commercially obtained from Biolegend.
In the blocking assay, 9His-hCD40L was passively absorbed at a concentration of 5 μg/mL in PBS on a 96-well microtiter plate overnight at 4° C. […] In a separate 96-well microtiter plate, a fixed amount of 40 nM hCD40-mmH was pre-mixed with one of the following antibodies, at concentrations ranging from 977 pM to 1 μM in PBS+0.5% BSA: (1) CD40×CD40 bispecific antibodies (REGN16431, REGN16432, REGN16634, and REGN16335); (2) parental CD40 mAbs (bivalent antibodies comprising 2 fragment antigen-binding [Fab] arms identical to one of anti-CD40 Fab of CD40×CD40 antibodies); (3) CD40×Irrelevant antibodies (bivalent antibodies that incorporate one Fab arm identical to one of anti-CD40 Fab of CD40×CD40 antibodies and another Fab arm specific to an irrelevant antigen); and (4) human IgG4 with Fc mutation isotype control antibodies (REGN7540 and REGN4513). The fixed concentration of hCD40-mmH was selected to be near the concentration (EC₅₀ value) that generated 50% of the maximal binding to the plate-adhered 9His-hCD40L. After one-hour incubation, the antibody-antigen complexes were transferred to the microtiter plate coated with 9His-hCD40L. After one hour incubation at room temperature, the plates were washed, and plate-bound hCD40-mmH protein was detected with horseradish peroxidase (HRP) conjugated goat anti-c-Myc antibody. The plates were then developed using TMB substrate solution (BD Biosciences) according to the manufacturer's recommended procedure and the absorbance at 450 nm (OD₄₅₀) was measured on a SpectraMax i3×plate reader.

| % Blocking at 1 uM mAb [%] | IC50 [nM] | Binder |
| --- | --- | --- |
| 94 | 61 | B1 |
| 94 | 62 | B2 |
| 93 | 33 | B3 |
| 95 | 32 | B4 |
| 10 | – | B5 |

Target: T1, monkey CD40 extracellular domain …
Assay: SPR Biacore 4000, mAb captured, 25C
Description: The equilibrium dissociation constants (KD) for anti-CD40 bivalent and bispecific monoclonal antibodies (mAbs) were determined using a real-time surface plasmon resonance (SPR)-based Biacore 4000 biosensor. All binding studies were performed in 10 mM HEPES, 150 mM NaCl, 3 mM EDTA, and 0.05% v/v surfactant Tween-20, pH 7.4 (HBS-ET) running buffer at 25° C. and 37° C. The Biacore CM5 sensor surface was first derivatized by amine coupling with a monoclonal mouse anti-human Fc antibody (REGN2567) to capture anti-CD40 bivalent parental and anti-CD40×CD40 bispecific antibodies. Different concentrations of CD40 reagents, human CD40 extracellular domain expressed with a C-terminal myc-myc-hexahistidine tag (SEQ ID NO: 1114) (“hCD40-MMH”; REGN3094; SEQ ID NO: 53), monkey CD40 extracellular domain expressed with a C-terminal myc-myc-hexahistidine tag (SEQ ID NO: 1114) (“mfCD40-MMH”; REGN3097; SEQ ID NO: 54), and mouse CD40 extracellular domain expressed with a C-terminal myc-myc-hexahistidine tag (SEQ ID NO: 1114) (“mCD40-MMH”; REGN3098; SEQ ID NO: 55), at concentrations ranging from 3.7 nM to 100 nM or 3.3 nM to 90 nM in a series of 3-fold dilutions prepared in HBS-ET running buffer were injected at a flow rate of 30 μL/min for 4 minutes or 50 μL/min for 5 minutes. The dissociation of different CD40 reagents bound to anti-CD40 bivalent parental and anti-CD40×CD40 bispecific antibodies was monitored for 10 minutes in HBS-ET running buffer. At the end of each cycle, the anti-CD40 bivalent parental and anti-CD40×CD40 bispecific antibodies capture surface was regenerated using a 12 sec injection of 20 mM H₃PO₄.
The association rate (ka) and dissociation rate (kd) were determined by fitting the real-time binding sensorgrams to a 1:1 binding model with mass transport limitation using Scrubber 2.0c curve-fitting software. Binding dissociation equilibrium constant (KD) and dissociative half-life (t_{1/2}) were calculated from the kinetic rates as: KD(M)=kd/kₐ, and t_{1/2} (min)=[ln(2)/(60*kd)].

| 100 nM Ag Bound [RU] | Kd [nM] | koff [s⁻¹] | kon [M⁻¹ s⁻¹] | t1/2 [s] | Binder |
| --- | --- | --- | --- | --- | --- |
| 10.3 | 205 | 0.181 | 886000 | 6 | B1 |
| 10.1 | 67.7 | 0.203 | 3e+06 | 6 | B2 |
| 63.1 | 0.901 | 0.00102 | 1.14e+06 | 678 | B5 |

Target: human CD40 (hCD40) expressed on cells (human, UniProt P25942 21-277)
Sequence (P25942 21-277): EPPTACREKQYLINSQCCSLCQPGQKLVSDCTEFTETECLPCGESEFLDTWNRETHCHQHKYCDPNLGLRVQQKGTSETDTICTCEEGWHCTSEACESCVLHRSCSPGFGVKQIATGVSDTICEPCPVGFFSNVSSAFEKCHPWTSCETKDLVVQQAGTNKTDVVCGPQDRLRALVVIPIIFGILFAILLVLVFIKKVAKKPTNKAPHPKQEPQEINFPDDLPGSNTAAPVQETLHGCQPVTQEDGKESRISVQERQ
Assay: cell-based or functional assay

| IC50, 900 pM hCD40L, Raji NFkB-luc [M] | Max % activation, no ligand, Raji NFkB-luc [%] | Max % inhibition, 900 pM hCD40L, Raji NFkB-luc [%] | EC50, no ligand, Raji NFkB-luc [nM] | Binder |
| --- | --- | --- | --- | --- |
| 6.05e-11 | 15 | 92 | – | B1 |
| 7.7e-11 | 25 | 81 | > 100 | B2 |
| 1.07e-10 | 13 | 82 | – | B3 |
| 1.02e-10 | 5 | 68 | – | B4 |
| 8.95e-12 | 9 | 67 | – | B5 |
